The labels stand for the following.
B3: Drosophila melanogaster CNNM CBS-pair domain, GST-tagged (domain or fragment, D. melanogaster)
chain: VNIISGALELRKKTVADVMTHINDAFMLSLDALLDFETVSEIMNSGYSRIPVYDGDRKNIVTLLYIKDLAFVDTDDNTPLKTLCEFYQNPVHFVFEDYTLDIMFNQFKEGTIGHIAFVHRVNNEGDGDPFYETVGLVTLEDVIEELIQAEIVDE
notes: CBS-pair domain of the Drosophila CNNM protein encoded by the uex (unextended) gene; also called Drosophila CNNM; dCNNM; source: E. coli BL21(DE3), purified (glutathione-Sepharose, Superdex-75); not shown: GST, N-terminal, kept
B4: Drosophila melanogaster PRL (wild-type) (enzyme, D. melanogaster, UniProt O61722 1-176, looked up)
chain: MSITMRQKDLRPAPALIEYKGMKFLITDRPSDITINHYIMELKKNNVNTVVRVCEPSYNTDELETQGITVKDLAFEDGTFPPQQVVDEWFEVLKDKYQQNPEACVAVHCVAGLGRAPVLVALALIELGLKYEAAVEMIRDKRRGAINAKQLSFLEKYKPKARLKHKNGHKNSCSVQ
notes: the single PRL of D. melanogaster, cloned without the C-terminal prenylation site; also called Drosophila PRL; fly PRL; source: E. coli BL21(DE3), purified (TALON Co2+ resin, Superdex-75)

What all share (experiment): ITC; VP-ITC, 20 °C, 20 mM Hepes pH 7.5, 100 mM NaCl, 5 mM TCEP; GST-CBS-pairs titrated with PRL; single site-binding model
Holding throughout (conditions): both partners purified

Assay [1] concerns the target T1, Caenorhabditis elegans PRL (C. elegans).
T1 construct: the single PRL of C. elegans, cloned without the C-terminal prenylation site; also called C. elegans PRL; source: E. coli BL21(DE3), purified (TALON Co2+ resin, Superdex-75)

Assay [2] concerns the target B4.
For assay [3], the target named is B3.
Assay [4] addresses T2, human PRL2 (human, UniProt Q12974 1-163).
T2 construct: human phosphatase of regenerating liver 2 (PRL2); also called hPRL2; source: E. coli BL21(DE3), purified (TALON Co2+ resin, Superdex-75)
T2 sequence: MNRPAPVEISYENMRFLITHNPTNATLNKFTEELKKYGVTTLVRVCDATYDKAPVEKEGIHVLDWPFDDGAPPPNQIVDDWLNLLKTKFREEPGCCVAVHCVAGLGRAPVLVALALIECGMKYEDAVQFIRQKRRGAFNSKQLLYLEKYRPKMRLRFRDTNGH

B1: CBS-pair domain of a C. elegans CNNM protein (the one of two expressed that bound with 1 μM affinity) (domain or fragment)
chain: LKIAVGAMEIADKVVKDVMTKIEDVFMLPDTTVLNAKTVMEIVKMGYTRIPVYQYGDKNNVTDMLFVKDLALLDPDDNFTVKTVCGYHKHPVKFVMNDTPLPNLLEAFKKGEGHLAMVKRLINTDDKHDPSYVLVGVVTLEDIVEEILQAEINDE
modifications: Table S2: only CNNM1 (376-530) and CNNM3 (375-527) gave protein; assigning the 1 uM binder to CNNM1 is inferred from listing order (Figure 4 not in text)
B1: the Kd in assay [1] is 1 µM.

B2: CBS-pair domain of a C. elegans CNNM protein (the one of two expressed that bound with 13 μM affinity) (domain or fragment)
chain: FKMVLGALELYDKTVAHAMTRYEDIFMLPHTLTLGAGMVTQILDMGYTRIPIYENDRKNIVALLFVKDLALLDPDDNHNVMKIASIYNHEVRRVLVDMPLRNMLEEFKRGEYHMALVERLVEQEDKDPIYELCGLITLEDIIEEIIQCEIIDE
modifications: Assigning the 13 uM binder to CNNM3 is inferred from listing order (Figure 4 not in text)
As to B2, in assay [1], binding was put at a Kd of 13 µM. In assay [2], B3 yielded a Kd of 0.35 µM. That is a sub-micromolar value. Turning to B4, the “fold weaker affinity than the human complex” value in assay [3] was determined as 20 fold.

B5: human CNNM3 CBS-pair domain (domain or fragment)
chain: LRCRTVEDVLTPLEDCFMLDASTVLDFGVLASIMQSGHTRIPVYEEERSNIVDMLYLKDLAFVDPEDCTPLSTITRFYNHPLHFVFNDTKLDAVLEEFKRGKSHLAIVQKVNNEGEGDPFYEVLGLVTLEDVIEEIIRSEILDE
notes: CBS-pair domain of human CNNM3; the ITC methods call all the titrated domains GST-CBS-pairs, the human one included; also called hCNNM3; GST-CBS-pair; source: E. coli BL21(DE3), purified; not shown: GST, N-terminal, kept
For B5, the binding result in assay [4] is listed as “binds”.

Values taken from PMC10040874, “Burst kinetics and CNNM binding are evolutionarily conserved properties of phosphatases of regenerating liver” (The Journal of Biological Chemistry, 2023).
